Results published in patent publication US7943337B2, “Method for screening a protease” (Asahi Kasei Pharma Corporation, priority 2003, dated 2011).

Columns and labels:
Type in all cases: biochemical
[1] = pH dependency of specific activity (FZK/FVH)
Experimental: (§1) 20 μl of an enzyme solution was added to 200 μl of a reaction solution (50 mM buffer, 0.1% Triton X-100, 0.03% 4-aminoantipyrine, 0.02% TOOS, 5 U/ml peroxidase, 2 mM substrate). The whole was incubated at 37° C. for 5 minutes and then 500 μl of 0.5% SDS was added thereto followed by determining absorbance at 555 nm. Tris-HCl (pH 7.5, 8.0, 8.5), PIPES (pH 6.0, 6.5, 7.0), and Bistris-HCl (pH 5.0, 5.5, 6.0, 6.5) were used as the buffers for determination. Also, absorbance was determined using a reaction solution containing no substrates. Differences in the absorbance when FVH and FZK each were used as a substrate and concentrations of the enzyme in the enzyme solution to be used are described in Table 18.

[2] = Specificity of mutant ketoamine oxidase to various substrates; details: Table 17; FVH = 100
Experimental: 100 μl of a preliminary sterilized expression medium (a medium containing 3% of sorbitol, 1.5% of polypeptone, 1.5% of yeast extract, and 50 μg/ml of ampicillin and adjusted to pH 7.0) was added to a 96-well microplate. Grown transformants were inoculated thereto and cultured overnight at 30° C. After the termination of the culture, each 5 μl of the culture solution was dispensed into two wells of a 96-well plate and 50 μl of a determination reagent (a 50 mM Tris-HCl buffer (pH 7.5) containing 1 mM FVH or FZK, 0.02% TOOS, 0.02% 4-aminoantipyrine and 10 U/ml peroxidase) was added to each well, and a reaction was carried out at 30° C. for 10-60 minutes. 150 μl of 0.5% SDS was added thereto to terminate the reaction and absorbance was determined at 550 nm using a Microreader (model 450, manufactured by Bio-Rad). From the constructed mutant library, a recombinant which produces ketoamine oxidase that act on FVH but has a decreased activity on FZK was selected. As a result of the screening, 923-F1 and 923-F2 were obtained as favorable mutant strains. Ketoamine oxidase genes harbored by those mutant strains were sequenced and resulted that mutations were introduced in the bases indicated by Table 15.
Note that, concentration of each substrate was set to be 1 mM and other reaction conditions were set according to the activity determination method described in <Screening of Mutant Ketoamine Oxidase having Decreased Action on FZK>.
Ketoamine oxidase derived from Neocosmospora vasinfecta 474 (FOD474) has high homology to ketoamine oxidases containing FOD923 and its amino acid sequence at an N-terminal region containing 158 of FOD923 is highly conserved as shown in FIG. 1. Using pPOSFOD474, FOD474 mutant strain 474-F1 in which 158 of FOD474 is substituted by a different amino acid (threonine) was acquired. […] 58 is a site that strongly affect on the specificity to FVH even in a case of a ketoamine oxidase derived from other microorganism species.

[3] = Substrate specificity of ketoamine oxidases; details: for absorbance difference (A1 − Ab): pH 7.5, 37° C., 5 minutes, 555 nm; for relative activity: FVH = 100 (FOD2: FZK = 100)
Experimental: (§2) Determination was performed by the same method described in <Reference Example: Substrate Specificity of Ketoamine Oxidase derived from Curvularia clavata YH923 (FERM BP-10009), Ketoamine Oxidase derived from Neocosmospora vasinfecta 474, and Ketoamine Oxidase derived from Fusarium oxysporum (manufactured by Asahi Kasei Pharma)>.

[4] = Substrate specificity of ketoamine oxidases; details: for absorbance difference (A1 − Ab): pH 7.5, 37° C., 5 minutes, 555 nm; for relative activity: FVH = 100 (FOD2: FZK = 100); remark: listed apart in the source
Experimental: The phrase “reactivity of a ketoamine oxidase to ε-1-deoxyfructosyl-(α-benzyloxycarbonyl-L-lysine) (hereinafter also referred to as FZK) is 5% or less compared with that to 1-deoxyfructosyl-L-valyl-L-histidine (hereinafter also referred to as FVH)” refers to the fact that the rate of the reactivity is 5% or less, which is determined by the following steps: adding 20 μl of a ketoamine oxidase solution to 200 μl of a reaction solution (50 mM Tris-HCl buffer (pH 7.5), 0.1% Triton X-100, 0.03% 4-aminoantipyrine, 0.02% TOOS, 5 U/ml peroxidase, and 2 mM FZK or FVH); allowing the mixture to react at 37° C. for 5 minutes; adding 0.5 ml of 0.5% SDS; determining an absorbance at 555 nm (A1); performing the same operations using a reaction solution containing no FZK and FVH to determine an absorbance (Ab); and determining the reactivity from the difference (A1−Ab).
as §2

[5] = pH dependency of activity of ketoamine oxidase
Experimental: as §1

[6] = Reaction for releasing fructosyl valine from FVHL by angiotensin-converting enzyme; details: 20 U/ml enzyme solution, 2 mM FVHL, 37° C., 1 hour; 730 nm
Experimental: Then, 200 μl of a coloring solution (50 mM Tris-HCl (pH 7.5), 0.1% Triton X-100, 5 U/ml POD, 50 U/ml FOD2, and 0.02 mM DA-64) was added to each resultant, and the mixture was allowed to react at 37° C. for 5 minutes. Thereafter, 500 μl of 0.5% SDS was added to terminate the coloring reaction, and the absorbance at 730 nm was determined. The same reaction was performed except that distilled water was used instead of the 2 mM FVHL solution. Meanwhile, 200 μl of the coloring solution was added to 40 μl of an FV solution (0, 5, 10, 20, or 50 μM), and determination was performed in the same way as above.

B1: FOD474: ketoamine oxidase of Neocosmospora vasinfecta 474 that reacts with FVH, expressed in Escherichia coli (protein, listed as Neocosmospora vasinfecta)
chain: MTTPRKETTVLIIGGGGTIGSSTALHLLRAGYTPSNITVLDTYPIPSAQSAGNDLNKIMGIRLRNKVDLQLSLEARDMWRNDALFRPFFHNTGRLDCESSAEGVEGLRREYQKLVEAGVGLEETHEWLDSEEAILEKAPLLQREEIEGWKAIWSEEGGWLAAAKAINAIGEELQRQGVRFGFGGAGSFKRPLFADDGTTCIGVETVDGTQYHADKVVLAAGAWSPALVDLEEQCCSKAWVYAHMQLTPEEAAVYKGCPVVYHGDVGFFFEPNENGVIKVCDEFPGFTRFKQHQPYGAPAPKPVSVPRSHAKHPTDTYPDASEESIKRAVSTFLPRFKDKPLFNRALCWCTDTADSALLICEHPRWKNFILATGDSGHSFKLLPIIGKHVVELVEGRLADDLAEAWRWRPGQGDARKSIRAAPAKDLADMPGWKHDQDSESR
modifications: CDS (1)..(1323)
notes: ketoamine oxidase of Neocosmospora vasinfecta 474 that reacts with FVH, expressed in Escherichia coli
For B1, the “specific activity (FZK/FVH)” value ([1]; Bistris pH 5.0) was 10.4%, the “specific activity (FZK/FVH)” value ([1]; Bistris pH 5.5) was 5.2% and the “specific activity (FZK/FVH)” value ([1]; Bistris pH 6.0) was 4.9%. The “specific activity (FZK/FVH)” value ([1]; Bistris pH 6.5) was 4.6%, the “specific activity (FZK/FVH)” value ([1]; PIPES pH 6.0) was 5.0% and the “specific activity (FZK/FVH)” value ([1]; PIPES pH 6.5) was 6.1%. The “specific activity (FZK/FVH)” value ([1]; PIPES pH 7.0) was 10.9%, the “specific activity (FZK/FVH)” value ([1]; Tris pH 7.5) was 19.9% and the “specific activity (FZK/FVH)” value ([1]; Tris pH 8.0) was 38.5%. The “specific activity (FZK/FVH)” value ([1]; Tris pH 8.5) was 66.7%, the “specificity, substrate FV” value [2] was 540 and the “specificity, substrate FVH” value [2] was 100. For the same molecule, the “specificity, substrate FZK” value [2] was 40, the “absorbance difference (A1 − Ab)” value ([3]; 2 mM FV) was 0.289 and the “absorbance difference (A1 − Ab)” value ([3]; 2 mM FVHL) was 0.002. For the same molecule, the “absorbance difference (A1 − Ab)” value ([3]; 2 mM FVHLT) was 0.002, the “absorbance difference (A1 − Ab)” value ([3]; 2 mM FVL) was 0.059 and the “absorbance difference (A1 − Ab)” value ([3]; 2 mM α-glycated pentapeptide) was 0.003. For the same molecule, the “absorbance difference (A1 − Ab)” value ([3]; 2 mM β-glycated pentapeptide) was 0.002, the relative activity ([3]; substrate FV) was 445% and the relative activity ([3]; substrate FVHL) was 0%. The relative activity ([3]; substrate FVHLT) was 0%, the relative activity ([3]; substrate FVL) was 0.91% and the relative activity ([3]; substrate α-glycated pentapeptide) was 0%. For the same molecule, the relative activity ([3]; substrate β-glycated pentapeptide) was 0%, the “absorbance difference (A1 − Ab)” value ([4]; 2 mM FVH) was 0.221 and the “absorbance difference (A1 − Ab)” value ([4]; 2 mM FZK) was 0.032. The relative activity ([4]; substrate FVH) was 100%, the relative activity ([4]; substrate FZK) was 15% and the “difference in absorbance, substrate FVH” value ([5]; Bistris pH 5.0) was 0.023. For the same molecule, the “difference in absorbance, substrate FZK” value ([5]; Bistris pH 5.0) was 0.012, the “difference in absorbance, substrate FVH” value ([5]; Bistris pH 5.5) was 0.084 and the “difference in absorbance, substrate FZK” value ([5]; Bistris pH 5.5) was 0.022. For the same molecule, the “difference in absorbance, substrate FVH” value ([5]; Bistris pH 6.0) was 0.187, the “difference in absorbance, substrate FZK” value ([5]; Bistris pH 6.0) was 0.042 and the “difference in absorbance, substrate FVH” value ([5]; Bistris pH 6.5) was 0.273. The “difference in absorbance, substrate FZK” value ([5]; Bistris pH 6.5) was 0.063, the “difference in absorbance, substrate FVH” value ([5]; PIPES pH 6.0) was 0.265 and the “difference in absorbance, substrate FZK” value ([5]; PIPES pH 6.0) was 0.066. For the same molecule, the “difference in absorbance, substrate FVH” value ([5]; PIPES pH 6.5) was 0.303, the “difference in absorbance, substrate FZK” value ([5]; PIPES pH 6.5) was 0.093 and the “difference in absorbance, substrate FVH” value ([5]; PIPES pH 7.0) was 0.243. The “difference in absorbance, substrate FZK” value ([5]; PIPES pH 7.0) was 0.132, the “difference in absorbance, substrate FVH” value ([5]; Tris pH 7.5) was 0.163 and the “difference in absorbance, substrate FZK” value ([5]; Tris pH 7.5) was 0.162. The “difference in absorbance, substrate FVH” value ([5]; Tris pH 8.0) was 0.104, the “difference in absorbance, substrate FZK” value ([5]; Tris pH 8.0) was 0.200 and the “difference in absorbance, substrate FVH” value ([5]; Tris pH 8.5) was 0.063. For the same molecule, the “difference in absorbance, substrate FZK” value ([5]; Tris pH 8.5) was 0.210.

B2: ACEP: angiotensin-converting enzyme derived from porcine kidney (manufactured by Sigma Corporation) (protein, UniProt F1RRW5 34-1309, looked up)
Angiotensin-converting enzyme: LDSALQPGNFTADEAGAEDFAQSFNSSSEQVLFQSTAASWAHDTNITEENARRQEEAALISQEFSEVWGQKAKALYDPIWQNFTSRTLRRIIGVVRTLGSANLSPAKRQQYNSLLSNMTRIYSTAKVCFPNKTATCWSLDPELTNILATSRSYTLLLYAWEGWHNAAGIPLKPLYQDFTALSNEAYKQDGFSDTGAYWRSLYDSPTFTEDLERLYHQLEPLYLNLHAYVRRALHRQYGDRFINLRGPIPAHLLGNMWAQSWNNIYDMVVPFPGKPSLDVTSAMVQKGWNVTHMFRVAEEFFTSLGLLPMPPEFWAESMLEKPSDGREVVCHASAWDFYNRKDFRIKQCTQVTMDQLSTVHHEMGHVQYYLQYKDQHVSLRRGANPGFHEAIGDVLALSVSTPAHLHKIGLLDHVTSDWESDINYLLKMALEKIAFLPFGYLVDQWRWGVFSGRTPPLYNYDWWYLRTKYQGVCPPVVRNETHFDAGAKYHVPNVTPYIRYFVSFILQFQFHQALCKEAGHQGPLHQCDIYQSTRAGAKLRAVLQAGSSRPWQEVLKDMVGSGALDAQPLLDYFQPVTQWLEEQNQRSGDILGWPEYQWRPPMPDNYPEGIDLVSDEAEASKFVEEYDRRSQVVLNEYAEANWDYNTNITAEGSKRVLEKSTQMANHTVKYGIWARKFDVANIQNFTLKRMIKKIQDLERAALPFKELEEYNQILLDMETAYSVASVCHANSTCLQLEPDLTNLMATSRSYEELLWAWKGWRDKVGRAILPYFPKYVELTNKAARLNGYEDGGDAWRAAYEMPFLEQELEQLFQELQPLYLNLHAYVRRALHHHYGPEHINLEGPIPAHLLGNMWAQTWSNIYDLVVPFPSASKMDASEAMINQGWTPQRMFKEADNFFTSLGLLPVPPEFWNKSMLEKPTDGREVVCHASAWDFFNGKDFRIKQCTTVNMEDLVVAHHEMGHIQYFMQYKDLPVTFREGANPGFHEAIGDVLALSVSTPKHLRSINLLKSEDDGYEEDINFLMKMALDKVAFVPFSYLVDQWRWRVFDRSITKENYNQEWWSLRLKYQGLCPPVARSQGDFDPGAKFHIPSSVPYIRYFVSFIIQFQFHEALCQAAGHKGPLHKCDIYQSKEAGRRLADAMKLGLSKPWPEAMQLITGQPNVSASAMMTYFKPLLDWLVTENGRHGEKLGWPQYNWTPNSARLEGSFAGTGRVNFLGLNLEEQQARVGQWVLLFLGVTLLVATMGLTQRLFSIRHQILRRTHRGPQFGSEVELRHS
In the case of B2, the “absorbance difference showing FV released” value [6] is reported as −0.006.
